Biological target: CRM1 protein (chromosome region maintenance 1)
Assay: co-immunoprecipitation (IP FOXO1, WB CRM1), band quantification
Details: chicken granulosa cells, with 740-Y-P; n = 3; parent: est. 1.9; read off a plot

Row | response | Substance
1 | 2 | chicken forkhead box O1 (FOXO1) wild-type (from UniProt A0A8V0XGP1) S311A
2 | 2 | chicken forkhead box O1 (FOXO1) wild-type (from UniProt A0A8V0XGP1) S248A

— publication PMC12691273
